Test results as given in patent US20160340421A1 (Regeneron, published 2016).
Ends that are not written are not given here. * marks the point of attachment. Biotin = O=C1N[C@H]2[C@H](CS[C@H]2CCCCC(=O)*)N1

What was measured:
[1] = target: T1, hGDF11 homodimer (human, UniProt O95390 299-407); assay: GDF11-inducible luciferase bioassay, 0.4 nM GDF11 (legend: NB=no binding)
T1 sequence (looked up): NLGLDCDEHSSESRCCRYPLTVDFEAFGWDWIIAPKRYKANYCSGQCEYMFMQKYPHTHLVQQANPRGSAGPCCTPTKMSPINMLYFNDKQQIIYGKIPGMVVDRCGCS

[2] = target: T2, Human GDF8 homodimer (mature human Growth and Differentiation Factor-8) (human, UniProt O14793 267-375); assay: cell-based or functional assay
T2 sequence: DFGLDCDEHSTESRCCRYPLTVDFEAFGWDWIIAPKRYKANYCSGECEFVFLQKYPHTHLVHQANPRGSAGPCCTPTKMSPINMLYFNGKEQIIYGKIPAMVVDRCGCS

[3] = target: T3, Activin A (UniProt P08476 311-426); assay: SPR Biacore T100, 25°C
T3 sequence (looked up): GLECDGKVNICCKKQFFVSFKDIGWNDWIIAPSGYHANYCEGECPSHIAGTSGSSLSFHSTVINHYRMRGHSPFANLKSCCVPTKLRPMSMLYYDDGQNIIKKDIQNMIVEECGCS
Method: (§1) Additional antigen binding experiments were conducted in which GDF8 and GDF11 were applied over a surface of selected anti-GDF8 antibodies and control antibodies at 25° C. and 37° C. Equilibrium dissociation constants (KD values) for antigen binding to selected antibodies were determined by surface kinetics using a real-time biosensor surface plasmon resonance assay (BIACORE™ T100). […] Various concentrations (2.5-0.625 nM, 2-fold dilutions) of hGDF8 homodimer or hGDF11 homodimer (or in some experiments, Activin A) were injected over the captured antibody surfaces, and antigen-antibody binding and dissociation were monitored in real time. Kinetic analysis was performed to calculate KD, dissociation rate constants (kd), association rate constants (ka) and half-life of antigen/antibody complex dissociation. (NB=no binding observed).

[4] = target: T4, hGDF8 peptide 12 (73-90), unmodified (human); assay: Luminex peptide beads
T4 peptide: CCTPTKMSPINMLYFNGK
Text: (§2) Fourteen peptides (Table 10) were generated from mature hGDF8 (SEQ ID NO:340). Unmodified peptides, N-terminal biotinylated peptides (N-term), or C-terminal biotinylated peptides (C-term) were used to test and localize antibody binding. Full-length hGDF8, hGDF11 and unmodified peptides were each individually amine-coupled to xMAP® Multi-Analyte COOH Microspheres (or beads). Each of the biotinylated peptides was bound to xMAP® Multi-Analyte LumAvidin Microspheres. Peptide-bound beads suspension were then mixed with an equal volume of blocking buffer (PBS, 1%13SA, 0.05% Tween20, 0.05% Sodium azide) and then distributed into a 96 well filter plate (Millipore, MULTISCREEN® BV). Control and test anti-hGDF8 antibodies, at 2.5 μg/ml were then added to the peptide-bound beads suspension and were allowed to bind to the beads at RT, overnight. The antibody-incubated beads were then washed twice with PBST (PBS+0.05% Tween20) and incubated with either Phycoerythrin (PE) conjugated anti-hFC or PE-conjugated anti-mFC antibodies at RT for 45 min. The beads were washed again and the antibody binding signal to various peptides were detected with either LUMINEX® 100™ or 200™ instruments.

[5] = target: T5, hGDF8 peptide 11 (65-72), N-terminal biotinylated (human); assay: Luminex peptide beads
T5 construct: also called peptide 11 N-term
T5 peptide: Biotin-NPRGSAGP
Text: as §2

[6] = target: T6, hGDF8 peptide 2 (1-18), unmodified (human); assay: Luminex peptide beads
T6 peptide: DFGLDCDEHSTESRCCRY
Text: as §2

[7] = target: T7, hGDF8 peptide 4 (48-65), unmodified (human); assay: Luminex peptide beads
T7 peptide: EFVFLQKYPHTHLVHQAN
Text: as §2

[8] = target: T8, hGDF8 peptide 9 (56-65), C-terminal biotinylated (human); assay: Luminex peptide beads
T8 construct: also called peptide 9 C-term
T8 peptide: PHTHLVHQAN-biotin
Text: as §2

[9] = target: T9, hGDF8 peptide 7 (52-65), unmodified (human); assay: Luminex peptide beads
T9 peptide: LQKYPHTHLVHQAN
Text: as §2

[10] = target: T10, hGDF8 peptide 5 (48-69), C-terminal biotinylated (human, C-terminal biotin); assay: Luminex peptide beads
T10 construct: also called peptide 5 C-term
T10 peptide: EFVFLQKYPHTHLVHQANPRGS
Text: as §2

[11] = target: T11, hGDF8 peptide 8 (52-72), unmodified (human); assay: Luminex peptide beads
T11 peptide: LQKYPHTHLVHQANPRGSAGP
Text: as §2

[12] = target: T12, hGDF8 peptide 14 (91-105), N-terminal biotinylated (human); assay: Luminex peptide beads
T12 construct: also called peptide 14 N-term
T12 peptide: Biotin-EQIIYGKIPAMVVDR
Text: as §2

[13] = target: T13, hGDF8 peptide 3 (17-42), N-terminal biotinylated (human, N-terminal biotin); assay: Luminex peptide beads
T13 construct: also called peptide 3 N-term
T13 peptide: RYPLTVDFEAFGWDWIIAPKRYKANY
Text: as §2

[14] = target: T14, hGDF8 peptide 6 (48-72), unmodified (human); assay: Luminex peptide beads
T14 construct: also called peptide fragment 48-72 amino acids
T14 peptide: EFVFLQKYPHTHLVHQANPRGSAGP
Text: as §2

[15] = target: T15, hGDF8 peptide 14 (91-105), unmodified (human); assay: Luminex peptide beads
T15 peptide: EQIIYGKIPAMVVDR
Text: as §2

[16] = target: T16, hGDF8 peptide 8 (52-72), C-terminal biotinylated (human, C-terminal biotin); assay: Luminex peptide beads
T16 construct: also called peptide 8 C-term
T16 peptide: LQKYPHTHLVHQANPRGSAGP
Text: as §2

[17] = target: T17, hGDF8 peptide 4 (48-65), C-terminal biotinylated (human); assay: Luminex peptide beads
T17 construct: also called peptide 4 C-term
T17 peptide: EFVFLQKYPHTHLVHQAN-biotin
Text: as §2

[18] = target: T18, hGDF8 peptide 2 (1-18), N-terminal biotinylated (human, cysteine pairing not given here); assay: Luminex peptide beads
T18 construct: also called peptide 2 N-term
T18 peptide: Biotin-DFGLDCDEHSTESRCCRY
Text: as §2

[19] = target: T19, hGDF8 peptide 5 (48-69), unmodified (human); assay: Luminex peptide beads
T19 peptide: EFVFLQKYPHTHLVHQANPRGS
Text: as §2

[20] = target: T20, hGDF8 peptide 13 (75-105), N-terminal biotinylated (human, N-terminal biotin); assay: Luminex peptide beads
T20 construct: also called peptide 13 N-term
T20 peptide: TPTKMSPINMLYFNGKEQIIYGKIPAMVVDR
Text: as §2

[21] = target: T21, hGDF8 peptide 1 (1-14), C-terminal biotinylated (human); assay: Luminex peptide beads
T21 construct: also called peptide 1 C-term
T21 peptide: DFGLDCDEHSTESR-biotin
Text: as §2

[22] = target: T22, hGDF8 peptide 10 (56-72), C-terminal biotinylated (human); assay: Luminex peptide beads
T22 construct: also called peptide 10 C-term
T22 peptide: PHTHLVHQANPRGSAGP-biotin
Text: as §2

[23] = target: T23, hGDF8 peptide 13 (75-105), unmodified (human); assay: Luminex peptide beads
T23 peptide: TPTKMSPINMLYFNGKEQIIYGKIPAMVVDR
Text: as §2

[24] = target: T2, Human GDF8 homodimer (mature human …); assay: SPR Biacore T100, captured on anti-hFc, 25°C
Method: as §1

binding result [1]: no binding
IC50, luciferase bioassay, 0.5 nM GDF8 [2]: 0.78 nM
binding result [3]: no binding (tested: 2.5-0.625 nM)
binding result [4]: no binding (tested: 2.5 µg/ml)
binding result [5]: no binding (tested: 2.5 µg/ml)
binding result [6]: no binding (tested: 2.5 µg/ml)
binding result [7]: no binding (tested: 2.5 µg/ml)
binding result [8]: no binding (tested: 2.5 µg/ml)
binding result [9]: no binding (tested: 2.5 µg/ml)
binding result [10]: no binding (tested: 2.5 µg/ml)
binding result [11]: no binding (tested: 2.5 µg/ml)
binding result [12]: no binding (tested: 2.5 µg/ml)
binding result [13]: no binding (tested: 2.5 µg/ml)
binding result [14]: no binding (tested: 2.5 µg/ml)
binding result [15]: no binding (tested: 2.5 µg/ml)
binding result [16]: no binding (tested: 2.5 µg/ml)
binding result [17]: no binding (tested: 2.5 µg/ml)
binding result [18]: no binding (tested: 2.5 µg/ml)
binding result [19]: no binding (tested: 2.5 µg/ml)
binding result [20]: no binding (tested: 2.5 µg/ml)
binding result [21]: no binding (tested: 2.5 µg/ml)
binding result [22]: no binding (tested: 2.5 µg/ml)
binding result [23]: no binding (tested: 2.5 µg/ml)
Kd [24]: 0.0283 nM
T1/2 [24]: 3.37 h
B1: H4H1657N2 (antibody, V domains shown)
VH: EVQVLESGGDLVQPGGSLRLSCAASGFTFSAYAMTWVRQAPGKGLEWVSAISGSGGSAYYADSVKGRFTISRDNSKNTVYLQMNSLRAEDTAVYYCAKDGAWKMSGLDVWGQGTTVIVSS
VL: DIQMTQSPASLSASVGDRVTITCRASQDISDYLAWYQQKPGKIPRLLIYTTSTLQSGVPSRFRGSGSGTDFTLTISSLQPEDVATYYCQKYDSAPLTFGGGTKVEIK
notes: captured by anti-hFc, so human Fc
